In US20170362621A1, “ENGINEERED MULTIFUNCTIONAL ENZYMES AND METHODS OF USE” (Danisco US Inc., priority 2014, published 2017) one finds Km data, which are given here for four proteins.

Substrate in data set [1]: O=[N+]([O-])c1ccc(O[C@@H]2OC[C@@H](O)[C@H](O)[C@H]2O)cc1
As to the kind of experiment: steady state kinetics, hydrolysis of pNpX. Type of data set: biochemical, Trichoderma reesei. Particulars: other: pNpX, 37° C. The text has this:
(§1) The Bgl1 variants of the table above were produced as follows. The nucleotide sequences encoding these variants were synthesized by an external vendor (BaseClear, Leiden, the Netherlands), and cloned into the pTTTpyr2 vector (see, e.g., published PCT application WO2014029808). Protoplasts of a Trichoderma reesei strain (e.g., the hexa-delete strain of International Publication WO05/001036) with its cbh1, cbh2, eg1, eg2, eg3, and bgl1 deleted) were transformed with plasmid DNA encoding the variants and wild type. The resulting transformants were fermented using standard Trichoderma reesei fermentation procedures.
(§2) Variants 02, 03 and 12 were diluted and incubated with varying concentrations of para-nitrophenol-beta-D-xylopyranoside (or para-nitrophenol-beta-D-xyloside) (pNpX) and para-nitrophenol-beta-D-glucopyranoside (pNpG) in the concentration range of 0.1-9 mM at 37° C. for 30 minutes. Reactions were stopped by addition of 100 μL 0.5 M sodium carbonate and absorbance was measured at 410 nm. Background subtracted OD410 absorbances were plotted against substrate concentration (FIG. 6B-E) and the data was fitted with a function for Michaelis-Menten kinetics using the statistical software package R. Michaelis constants and relative maximum velocities for hydrolysis of pNpX and pNpG were reported in Tables 6 and 7, below, respectively.
It was noted that the data for pNpX hydrolysis by the wild type Bgl1 could not be fitted with the Michaelis-Menten function. In order to calculate a Michalis constant the maximum velocity obtained for Variant 03 was used.

Substrate in data set [2]: O=[N+]([O-])c1ccc(O[C@@H]2O[C@H](CO)[C@@H](O)[C@H](O)[C@H]2O)cc1
Nature of the data set: steady state kinetics, hydrolysis of pNpG. Type of data set: biochemical, Trichoderma reesei. Particulars: other: pNpG, 0.1-9 mM, 37° C., 30 minutes.
Source text: as §1, §2

B1: Trichoderma reesei Bgl1 variant Bgl1-var-02, V43F (numbered per mature Bgl1, SEQ ID NO:3) (Trichoderma reesei; V74F) (protein)
chain: VVPPAGTPWGTAYDKAKAALAKLNLQDKVGIVSGVGWNGGPCFGNTSPASKISYPSLCLQDGPLGVRYSTGSTAFTPGVQAASTWDVNLIRERGQFIGEEVKASGIHVILGPVAGPLGKTPQGGRNWEGFGVDPYLTGIAMGQTINGIQSVGVQATAKHYILNEQELNRETISSNPDDRTLHELYTWPFADAVQANVASVMCSYNKVNTTWACEDQYTLQTVLKDQLGFPGYVMTDWNAQHTTVQSANSGLDMSMPGTDFNGNNRLWGPALTNAVNSNQVPTSRVDDMVTRILAAWYLTGQDQAGYPSFNISRNVQGNHKTNVRAIARDGIVLLKNDANILPLKKPASIAVVGSAAIIGNHARNSPSCNDKGCDDGALGMGWGSGAVNYPYFVAPYDAINTRASSQGTQVTLSNTDNTSSGASAARGKDVAIVFITADSGEGYITVEGNAGDRNNLDPWHNGNALVQAVAGANSNVIVVVHSVGAIILEQILALPQVKAVVWAGLPSQESGNALVDVLWGDVSPSGKLVYTIAKSPNDYNTRIVSGGSDSFSEGLFIDYKHFDDANITPRYEFGYGLSYTKFNYSRLSVLSTAKSGPATGAVVPGGPSDLFQNVATVTVDIANSGQVTGAEVAQLYITYPSSAPRTPPKQLRGFAKLNLTPGQSGTATFNIRRRDLSYWDTASQKWVVPSGSFGISVGASSRDIRLTSTLSVA
notes: diluted fermentation product
The term Km denotes the concentration of substrate that gives half-maximal velocity. As to B1, the Km in data set [1] (0.1-9 mM, 30 minutes) was 5.7 mM; in data set [2], 4.8 mM.

B2: Trichoderma reesei Bgl1 variant Bgl1-var-03, V43L (numbered per mature Bgl1, SEQ ID NO:3) (Trichoderma reesei; V74L) (protein)
chain: VVPPAGTPWGTAYDKAKAALAKLNLQDKVGIVSGVGWNGGPCLGNTSPASKISYPSLCLQDGPLGVRYSTGSTAFTPGVQAASTWDVNLIRERGQFIGEEVKASGIHVILGPVAGPLGKTPQGGRNWEGFGVDPYLTGIAMGQTINGIQSVGVQATAKHYILNEQELNRETISSNPDDRTLHELYTWPFADAVQANVASVMCSYNKVNTTWACEDQYTLQTVLKDQLGFPGYVMTDWNAQHTTVQSANSGLDMSMPGTDFNGNNRLWGPALTNAVNSNQVPTSRVDDMVTRILAAWYLTGQDQAGYPSFNISRNVQGNHKTNVRAIARDGIVLLKNDANILPLKKPASIAVVGSAAIIGNHARNSPSCNDKGCDDGALGMGWGSGAVNYPYFVAPYDAINTRASSQGTQVTLSNTDNTSSGASAARGKDVAIVFITADSGEGYITVEGNAGDRNNLDPWHNGNALVQAVAGANSNVIVVVHSVGAIILEQILALPQVKAVVWAGLPSQESGNALVDVLWGDVSPSGKLVYTIAKSPNDYNTRIVSGGSDSFSEGLFIDYKHFDDANITPRYEFGYGLSYTKFNYSRLSVLSTAKSGPATGAVVPGGPSDLFQNVATVTVDIANSGQVTGAEVAQLYITYPSSAPRTPPKQLRGFAKLNLTPGQSGTATFNIRRRDLSYWDTASQKWVVPSGSFGISVGASSRDIRLTSTLSVA
notes: diluted fermentation product
On to B2, for which the Km in data set [1] (0.1-9 mM, 30 minutes) was 7 mM; in data set [2] it was 1.17 mM.

B3: Trichoderma reesei beta-glucosidase I (Bgl1), wild type, SEQ ID NO:2 (mature SEQ ID NO:3) (Trichoderma reesei) (protein)
chain: VVPPAGTPWGTAYDKAKAALAKLNLQDKVGIVSGVGWNGGPCVGNTSPASKISYPSLCLQDGPLGVRYSTGSTAFTPGVQAASTWDVNLIRERGQFIGEEVKASGIHVILGPVAGPLGKTPQGGRNWEGFGVDPYLTGIAMGQTINGIQSVGVQATAKHYILNEQELNRETISSNPDDRTLHELYTWPFADAVQANVASVMCSYNKVNTTWACEDQYTLQTVLKDQLGFPGYVMTDWNAQHTTVQSANSGLDMSMPGTDFNGNNRLWGPALTNAVNSNQVPTSRVDDMVTRILAAWYLTGQDQAGYPSFNISRNVQGNHKTNVRAIARDGIVLLKNDANILPLKKPASIAVVGSAAIIGNHARNSPSCNDKGCDDGALGMGWGSGAVNYPYFVAPYDAINTRASSQGTQVTLSNTDNTSSGASAARGKDVAIVFITADSGEGYITVEGNAGDRNNLDPWHNGNALVQAVAGANSNVIVVVHSVGAIILEQILALPQVKAVVWAGLPSQESGNALVDVLWGDVSPSGKLVYTIAKSPNDYNTRIVSGGSDSFSEGLFIDYKHFDDANITPRYEFGYGLSYTKFNYSRLSVLSTAKSGPATGAVVPGGPSDLFQNVATVTVDIANSGQVTGAEVAQLYITYPSSAPRTPPKQLRGFAKLNLTPGQSGTATFNIRRRDLSYWDTASQKWVVPSGSFGISVGASSRDIRLTSTLSVA
notes: secreted mature protein
B3: the Km in data set [1] (data could not be fitted, calculated with the maximum velocity obtained for Variant 03) was 45.1 mM; in data set [2], 1.3 mM.

B4: Trichoderma reesei Bgl1 variant Bgl1-var-12, V43F/W237A (numbered per mature Bgl1, SEQ ID NO:3) (Trichoderma reesei; V74F/W268A) (protein)
chain: VVPPAGTPWGTAYDKAKAALAKLNLQDKVGIVSGVGWNGGPCFGNTSPASKISYPSLCLQDGPLGVRYSTGSTAFTPGVQAASTWDVNLIRERGQFIGEEVKASGIHVILGPVAGPLGKTPQGGRNWEGFGVDPYLTGIAMGQTINGIQSVGVQATAKHYILNEQELNRETISSNPDDRTLHELYTWPFADAVQANVASVMCSYNKVNTTWACEDQYTLQTVLKDQLGFPGYVMTDANAQHTTVQSANSGLDMSMPGTDFNGNNRLWGPALTNAVNSNQVPTSRVDDMVTRILAAWYLTGQDQAGYPSFNISRNVQGNHKTNVRAIARDGIVLLKNDANILPLKKPASIAVVGSAAIIGNHARNSPSCNDKGCDDGALGMGWGSGAVNYPYFVAPYDAINTRASSQGTQVTLSNTDNTSSGASAARGKDVAIVFITADSGEGYITVEGNAGDRNNLDPWHNGNALVQAVAGANSNVIVVVHSVGAIILEQILALPQVKAVVWAGLPSQESGNALVDVLWGDVSPSGKLVYTIAKSPNDYNTRIVSGGSDSFSEGLFIDYKHFDDANITPRYEFGYGLSYTKFNYSRLSVLSTAKSGPATGAVVPGGPSDLFQNVATVTVDIANSGQVTGAEVAQLYITYPSSAPRTPPKQLRGFAKLNLTPGQSGTATFNIRRRDLSYWDTASQKWVVPSGSFGISVGASSRDIRLTSTLSVA
notes: diluted fermentation product
Take B4: the Km in data set [1] (0.1-9 mM, 30 minutes) came to 18.4 mM; in data set [2] it was 9.1 mM.
